Entries after “also recorded” stand apart in the source; their conditions may differ.

The source of these data is patent US6562613.

This series deals with 14C-labeled type I procollagen purified from chick embryo fibroblasts, P02457.
Sequence of 14C-labeled type I procollagen purified from chick embryo fibroblasts, P02457 (P02457 23-1453, chain 1 of 2): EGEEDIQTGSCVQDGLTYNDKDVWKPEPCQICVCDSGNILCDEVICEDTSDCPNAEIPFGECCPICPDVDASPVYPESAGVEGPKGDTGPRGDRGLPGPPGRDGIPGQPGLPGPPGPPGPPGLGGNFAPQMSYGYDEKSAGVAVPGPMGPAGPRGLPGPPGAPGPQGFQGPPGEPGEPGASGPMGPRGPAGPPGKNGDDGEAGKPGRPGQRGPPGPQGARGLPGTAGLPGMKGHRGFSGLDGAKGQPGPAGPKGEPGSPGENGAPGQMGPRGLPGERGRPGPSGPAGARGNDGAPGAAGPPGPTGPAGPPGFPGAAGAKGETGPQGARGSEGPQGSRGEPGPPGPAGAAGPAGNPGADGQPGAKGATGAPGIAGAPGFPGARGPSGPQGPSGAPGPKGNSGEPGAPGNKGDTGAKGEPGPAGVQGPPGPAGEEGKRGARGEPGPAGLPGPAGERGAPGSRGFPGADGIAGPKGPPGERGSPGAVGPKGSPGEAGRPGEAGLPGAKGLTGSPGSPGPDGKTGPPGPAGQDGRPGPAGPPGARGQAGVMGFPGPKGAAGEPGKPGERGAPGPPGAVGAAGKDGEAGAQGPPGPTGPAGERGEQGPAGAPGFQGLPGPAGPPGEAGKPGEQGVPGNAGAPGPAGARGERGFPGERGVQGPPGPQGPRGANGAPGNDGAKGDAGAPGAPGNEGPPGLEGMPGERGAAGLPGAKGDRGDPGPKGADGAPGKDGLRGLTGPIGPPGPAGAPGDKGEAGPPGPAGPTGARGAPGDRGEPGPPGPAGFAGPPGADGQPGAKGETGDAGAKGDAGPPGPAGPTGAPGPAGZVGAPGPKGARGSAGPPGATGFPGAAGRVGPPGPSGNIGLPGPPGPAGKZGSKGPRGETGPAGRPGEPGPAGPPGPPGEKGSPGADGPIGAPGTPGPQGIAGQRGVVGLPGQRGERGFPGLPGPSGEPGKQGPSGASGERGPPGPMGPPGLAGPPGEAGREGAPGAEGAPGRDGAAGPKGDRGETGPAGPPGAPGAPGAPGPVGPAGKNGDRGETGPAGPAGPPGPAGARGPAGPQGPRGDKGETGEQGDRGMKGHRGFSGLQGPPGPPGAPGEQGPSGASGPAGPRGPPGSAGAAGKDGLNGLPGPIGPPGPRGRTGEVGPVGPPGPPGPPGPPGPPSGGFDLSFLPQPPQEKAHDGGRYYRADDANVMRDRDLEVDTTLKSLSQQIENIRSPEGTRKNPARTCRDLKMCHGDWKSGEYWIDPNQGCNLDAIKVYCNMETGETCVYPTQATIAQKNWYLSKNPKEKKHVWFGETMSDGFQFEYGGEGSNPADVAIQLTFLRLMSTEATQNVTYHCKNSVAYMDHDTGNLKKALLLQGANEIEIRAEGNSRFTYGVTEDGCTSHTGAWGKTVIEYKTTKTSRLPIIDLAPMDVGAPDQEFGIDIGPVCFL
Sequence of 14C-labeled type I procollagen purified from chick embryo fibroblasts, P02457 (chain, as listed by the source, chain 2 of 2): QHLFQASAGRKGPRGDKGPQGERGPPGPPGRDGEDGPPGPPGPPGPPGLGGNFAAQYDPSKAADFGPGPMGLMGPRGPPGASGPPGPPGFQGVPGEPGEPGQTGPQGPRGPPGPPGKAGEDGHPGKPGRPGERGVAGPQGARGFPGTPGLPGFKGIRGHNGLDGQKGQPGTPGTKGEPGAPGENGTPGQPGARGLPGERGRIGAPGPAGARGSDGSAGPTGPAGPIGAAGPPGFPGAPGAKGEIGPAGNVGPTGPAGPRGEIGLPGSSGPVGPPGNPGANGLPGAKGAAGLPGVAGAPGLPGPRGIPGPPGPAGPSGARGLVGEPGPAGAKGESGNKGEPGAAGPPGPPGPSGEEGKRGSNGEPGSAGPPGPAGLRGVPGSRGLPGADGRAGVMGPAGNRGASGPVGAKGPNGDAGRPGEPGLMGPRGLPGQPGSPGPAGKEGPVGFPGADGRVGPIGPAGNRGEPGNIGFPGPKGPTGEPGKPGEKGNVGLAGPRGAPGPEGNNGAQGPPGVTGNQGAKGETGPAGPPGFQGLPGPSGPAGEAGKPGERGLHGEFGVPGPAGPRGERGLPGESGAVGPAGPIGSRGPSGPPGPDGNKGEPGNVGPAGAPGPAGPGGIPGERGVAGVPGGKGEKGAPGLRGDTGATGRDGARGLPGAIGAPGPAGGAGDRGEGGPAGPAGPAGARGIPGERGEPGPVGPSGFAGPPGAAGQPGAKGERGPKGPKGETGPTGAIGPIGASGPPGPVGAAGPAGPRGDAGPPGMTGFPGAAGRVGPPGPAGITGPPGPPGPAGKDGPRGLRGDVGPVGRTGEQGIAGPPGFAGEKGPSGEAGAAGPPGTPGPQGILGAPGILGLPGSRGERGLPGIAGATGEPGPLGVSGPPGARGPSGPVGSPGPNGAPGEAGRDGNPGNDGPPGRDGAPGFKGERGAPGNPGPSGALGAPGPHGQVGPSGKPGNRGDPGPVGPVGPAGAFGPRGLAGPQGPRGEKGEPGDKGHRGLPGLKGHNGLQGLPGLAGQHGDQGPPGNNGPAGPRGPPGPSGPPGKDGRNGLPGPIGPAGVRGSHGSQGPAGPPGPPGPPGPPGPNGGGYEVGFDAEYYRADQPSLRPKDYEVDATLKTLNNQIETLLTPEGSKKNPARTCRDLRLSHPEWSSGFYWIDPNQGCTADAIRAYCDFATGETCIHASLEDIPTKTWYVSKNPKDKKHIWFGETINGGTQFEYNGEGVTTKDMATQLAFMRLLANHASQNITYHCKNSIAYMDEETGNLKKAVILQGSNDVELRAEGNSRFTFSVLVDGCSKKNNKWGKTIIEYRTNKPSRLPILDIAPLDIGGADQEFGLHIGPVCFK

B1: procollagen C-proteinase pCP-2 (986 amino acids), recombinant, in medium of transfected HT-1080 cells (protein)
chain: AATSRPEPVWPDGVIPFVIGGNFTGSQRAVFPQAMRHWEKHTCVTFLERTDEDSYILFTYAPCGCCSYVGRRGGGPQAISMGKNCDKFGIVVHELGHVVGLWHEHTGPDRDRQVSIVRENIQPGQEYNFLKMEPQEVESLGETYDFDSIMHYARNTFSRGIFLDTIVPKYEVNGVKPPIGQRTRLRKGDIAQAPKLYKCPACGETLQDSTGNFSSPEYPNGYSAHMHCVWRICVTPGEKIILNFTSLDLYRSGLCWYQYVEVRDGFWRKAPLRGRFCGSKLPEPIVSTDSRLWVQFRSSSNWLGKGFFPVYEAMWGGDVKKDYGQIQSPNYPDDYRPSKVWMWRIQVSEGFDVGLTFQSFEIERHDSCGYDYLEVRDGHSESSTLIGRYCRYEKPDEIKSTSSPLWLKFVSDGSINKPGFAVNFFKEVDECSRPNRGGCEQRCLNTLGSYKWSCDPGYELPPEKRRCEAPCGGFLTKLNGSISRGGWPKEYPPNKNCIWQLVAPTQYRISLQFDFFETEGNDVCKYDFVEVRSGLTADSKLHGKFCGSEKPEVITSQYNNMRVEFKSDNTVSKKGFKAHFFSDKDECSKDNGGCQQDCVNTFGSYECQCRSGFVLHDNKHDCKEPGCDHKVTSTSGTITSPNWPDKYPSKKECTWAISSTPGHRVKLTFMEMDIESQPECAYDHLEVFDGRDAKAPVLGRFCGSKKPEPVLGTGSRMFLRFYSDNSVQRKGFQASHATECGGQVGADVKTKDLYSHAQFGDNNYPGGVDCEWVIVPEEGYGVEVLFQTFEVEDQTDCGYHYMELFDGYDSTAPRLGRYCGSGPPEEVYSAGDSVLVKFHSDDTITKKGFHLRYTSTKFQDTLHSRK
On to B1, for which the “C-proteinase activity: cleavage of 14C-labeled type I procollagen, SDS-polyacrylamide gel” value was “Medium from neomycin-resistant clones expressing either pCP-1 or pCP-2 contained enzymatic activity that specifically cleaved type I procollagen into the products predicted by the introduction of C-proteinase; also recorded: Complete cleavage of type I procollagen to pNα1 (I) chains, pNα2 (I) chains and the C-propeptide were obtained with medium from a clone transfected with pCP-2 and partially fractionated and concentrated by membrane filtration”.

B2: recombinant pCP-2 with a 6-histidine tag, expressed in E. coli, refolded and activated by limited digestion with chymotrypsin (protein)
chain: AATSRPEPVWPDGVIPFVIGGNFTGSQRAVFPQAMRHWEKHTCVTFLERTDEDSYILFTYAPCGCCSYVGRRGGGPQAISMGKNCDKFGIVVHELGHVVGLWHEHTGPDRDRQVSIVRENIQPGQEYNFLKMEPQEVESLGETYDFDSIMHYARNTFSRGIFLDTIVPKYEVNGVKPPIGQRTRLRKGDIAQAPKLYKCPACGETLQDSTGNFSSPEYPNGYSAHMHCVWRICVTPGEKIILNFTSLDLYRSGLCWYQYVEVRDGFWRKAPLRGRFCGSKLPEPIVSTDSRLWVQFRSSSNWLGKGFFPVYEAMWGGDVKKDYGQIQSPNYPDDYRPSKVWMWRIQVSEGFDVGLTFQSFEIERHDSCGYDYLEVRDGHSESSTLIGRYCRYEKPDEIKSTSSPLWLKFVSDGSINKPGFAVNFFKEVDECSRPNRGGCEQRCLNTLGSYKWSCDPGYELPPEKRRCEAPCGGFLTKLNGSISRGGWPKEYPPNKNCIWQLVAPTQYRISLQFDFFETEGNDVCKYDFVEVRSGLTADSKLHGKFCGSEKPEVITSQYNNMRVEFKSDNTVSKKGFKAHFFSDKDECSKDNGGCQQDCVNTFGSYECQCRSGFVLHDNKHDCKEPGCDHKVTSTSGTITSPNWPDKYPSKKECTWAISSTPGHRVKLTFMEMDIESQPECAYDHLEVFDGRDAKAPVLGRFCGSKKPEPVLGTGSRMFLRFYSDNSVQRKGFQASHATECGGQVGADVKTKDLYSHAQFGDNNYPGGVDCEWVIVPEEGYGVEVLFQTFEVEDQTDCGYHYMELFDGYDSTAPRLGRYCGSGPPEEVYSAGDSVLVKFHSDDTITKKGFHLRYTSTKFQDTLHSRK
B2: the “C-proteinase activity in a standard reaction system with 14C-labeled procollagen” value was “Specific C-proteinase activity was observed (Lanes 1 to 4 in FIG. 5 ) after limited digestion with chymotrypsin” and the “specific activity relative to C-proteinase isolated from chick embryo tendons” value is “about 1/30-th of the specific activity of C-proteinase isolated from chick embryo tendons”.

B3: recombinant pCP-2 with a 6-histidine tag, expressed in E. coli, refolded, without chymotrypsin activation (protein)
chain: LDFPDYTYDLAEEDDSEPLNYKDPCKAAAFLGDIALDEEDLRAFQVQQAVDVRRHTARKSSIKAAVPGNTSTPTCQSTNGQPQRGACGRWRGRSRSRRAATSRPEPVWPDGVIPFVIGGNFTGSQRAVFPQAMRHWEKHTCVTFLERTDEDSYILFTYAPCGCCSYVGRRGGGPQAISMGKNCDKFGIVVHELGHVVGLWHEHTGPDRDRQVSIVRENIQPGQEYNFLKMEPQEVESLGETYDFDSIMHYARNTFSRGIFLDTIVPKYEVNGVKPPIGQRTRLRKGDIAQAPKLYKCPACGETLQDSTGNFSSPEYPNGYSAHMHCVWRICVTPGEKIILNFTSLDLYRSGLCWYQYVEVRDGFWRKAPLRGRFCGSKLPEPIVSTDSRLWVQFRSSSNWLGKGFFPVYEAMWGGDVKKDYGQIQSPNYPDDYRPSKVWMWRIQVSEGFDVGLTFQSFEIERHDSCGYDYLEVRDGHSESSTLIGRYCRYEKPDEIKSTSSPLWLKFVSDGSINKPGFAVNFFKEVDECSRPNRGGCEQRCLNTLGSYKWSCDPGYELPPEKRRCEAPCGGFLTKLNGSISRGGWPKEYPPNKNCIWQLVAPTQYRISLQFDFFETEGNDVCKYDFVEVRSGLTADSKLHGKFCGSEKPEVITSQYNNMRVEFKSDNTVSKKGFKAHFFSDKDECSKDNGGCQQDCVNTFGSYECQCRSGFVLHDNKHDCKEPGCDHKVTSTSGTITSPNWPDKYPSKKECTWAISSTPGHRVKLTFMEMDIESQPECAYDHLEVFDGRDAKAPVLGRFCGSKKPEPVLGTGSRMFLRFYSDNSVQRKGFQASHATECGGQVGADVKTKDLYSHAQFGDNNYPGGVDCEWVIVPEEGYGVEVLFQTFEVEDQTDCGYHYMELFDGYDSTAPRLGRYCGSGPPEEVYSAGDSVLVKFHSDDTITKKGFHLRYTSTKFQDTLHSRK
Turning to B3, the “C-proteinase activity in a standard reaction system with 14C-labeled procollagen” value is given as “No C-proteinase activity was observed when the recombinant protein was incubated in a standard reaction system without prior activation of the protein by digestion with chymotrypsin”.

B4: procollagen C-proteinase pCP-1 (730 amino acids), recombinant, in medium of transfected HT-1080 cells (protein)
chain: AATSRPERVWPDGVIPFVIGGNFTGSQRAVFRQAMRHWEKHTCVTFLERTDEHSYILFTYRPCGCCSYVGPRGGGPQAISIGKNCDKFGIVVHELGHVVGFWHEHTRPDRDRHVSIVRENIQPGQEYNFLKMEPQEVESLGETYDFDSIMHYARNTFSRGIFLDTIVPKYEVNGVKPPIGQRTRLSKGDIAQARKLYKCPACGETLQDSTGNFSSPEYPNGYSAHMHCVWRISVTPGEKIILNFTSLDLYRSPLCWYDYVEVRDGFWRKAPLRGRFCGSKLPEPIVSTDSRLWVEFRSSSNWVGNGFFAVYEGICGGDVKKDYGHIQSPNYPDDYRPSKVCIWRIQVSEGFHVGLTFQSFEIERHDSCAYDYLEVRDGHSESSTLIGRYCGYEKPDDIKSTSSRLWLKFVSDGSINKAGFAVNFFKEVDECSRPNRGGCEQRCLNTLGSYKCSCHPGYELAPDKRRCEAACGGFLTKLNGSITSPGWPKEYPPNKNCIWQLVAPTQYRISLQFDFFETEGNDVCKYDFVEVRSGLTAHSKLHGKFCGSEKPEVITSQYNNMRVEFKSDNTVSKKGFKAHFFSENRPALQPPRGPPHQLKFRVQKRNRTPQ
As for B4, the “C-proteinase activity: cleavage of 14C-labeled type I procollagen, SDS-polyacrylamide gel” value is “Medium from neomycin-resistant clones expressing either pCP-1 or pCP-2 contained enzymatic activity that specifically cleaved type I procollagen into the products predicted by the introduction of C-proteinase”.
